To fix the notation:
T1: FcγRIIb extracellular domain with C-terminal His tag (human, UniProt P31994 43-217)
T1 construct: extracellular domain; also called FcgRIIb; 2b
T1 sequence (looked up): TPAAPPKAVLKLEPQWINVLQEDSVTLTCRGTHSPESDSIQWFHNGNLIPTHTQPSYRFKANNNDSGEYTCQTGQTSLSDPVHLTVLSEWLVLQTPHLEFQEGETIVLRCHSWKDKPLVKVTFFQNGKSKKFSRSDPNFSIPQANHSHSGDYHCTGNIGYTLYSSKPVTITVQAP

B1: GpH7-B3 variant L328_09D/GpL16-k0 (antibody, human IgG1, kappa)
heavy: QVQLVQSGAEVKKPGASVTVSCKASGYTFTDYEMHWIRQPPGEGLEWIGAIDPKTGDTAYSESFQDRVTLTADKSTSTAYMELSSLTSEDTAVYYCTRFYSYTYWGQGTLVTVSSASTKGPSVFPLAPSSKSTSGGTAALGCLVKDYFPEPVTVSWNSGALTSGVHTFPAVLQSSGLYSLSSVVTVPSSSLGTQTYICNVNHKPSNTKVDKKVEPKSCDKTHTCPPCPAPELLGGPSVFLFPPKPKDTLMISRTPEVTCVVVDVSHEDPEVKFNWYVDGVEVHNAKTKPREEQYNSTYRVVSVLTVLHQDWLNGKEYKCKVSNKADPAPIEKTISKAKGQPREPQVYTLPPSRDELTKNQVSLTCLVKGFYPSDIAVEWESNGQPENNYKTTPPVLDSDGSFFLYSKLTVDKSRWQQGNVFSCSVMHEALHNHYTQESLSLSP
light: DIVMTQSPLSLPVTPGEPASISCQASESLVHSNRNTYLHWYLQKPGQSPQLLIYKVSNRFSGVPDRFSGSGSGTDFTLKISRVEAEDVGVYYCSQNTHVPPTFGQGTKVEIERTVAAPSVFIFPPSDEQLKSGTASVVCLLNNFYPREAKVQWKVDNALQSGNSQESVTEQDSKDSTYSLSSTLTLSKADYEKHKVYACEVTHQGLSSPVTKSFNRGEC
notes: also called Ho Ab L328_09D
B2: GpH7-B3 variant P238_03V/GpL16-k0 (antibody, human IgG1, kappa)
heavy: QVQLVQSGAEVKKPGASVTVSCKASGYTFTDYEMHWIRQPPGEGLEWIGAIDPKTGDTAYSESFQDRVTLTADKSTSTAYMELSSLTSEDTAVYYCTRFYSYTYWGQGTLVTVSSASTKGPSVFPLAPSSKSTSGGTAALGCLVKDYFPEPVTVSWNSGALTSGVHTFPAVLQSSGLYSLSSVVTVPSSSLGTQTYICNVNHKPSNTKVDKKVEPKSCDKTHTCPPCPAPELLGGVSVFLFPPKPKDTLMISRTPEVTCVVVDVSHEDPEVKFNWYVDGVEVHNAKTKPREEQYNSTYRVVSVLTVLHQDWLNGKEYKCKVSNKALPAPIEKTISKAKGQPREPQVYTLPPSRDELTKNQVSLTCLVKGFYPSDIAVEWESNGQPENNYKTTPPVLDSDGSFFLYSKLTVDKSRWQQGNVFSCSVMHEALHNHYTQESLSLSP
light: B1 light
notes: also called Ho Ab P238_03V
B3: GpH7-B3 variant N325_20W/GpL16-k0 (antibody, human IgG1, kappa)
heavy: not shown
light: B1 light
notes: also called Ho Ab N325_20W
B4: GpH7-B3 variant N325_03V/GpL16-k0 (antibody, human IgG1, kappa)
heavy: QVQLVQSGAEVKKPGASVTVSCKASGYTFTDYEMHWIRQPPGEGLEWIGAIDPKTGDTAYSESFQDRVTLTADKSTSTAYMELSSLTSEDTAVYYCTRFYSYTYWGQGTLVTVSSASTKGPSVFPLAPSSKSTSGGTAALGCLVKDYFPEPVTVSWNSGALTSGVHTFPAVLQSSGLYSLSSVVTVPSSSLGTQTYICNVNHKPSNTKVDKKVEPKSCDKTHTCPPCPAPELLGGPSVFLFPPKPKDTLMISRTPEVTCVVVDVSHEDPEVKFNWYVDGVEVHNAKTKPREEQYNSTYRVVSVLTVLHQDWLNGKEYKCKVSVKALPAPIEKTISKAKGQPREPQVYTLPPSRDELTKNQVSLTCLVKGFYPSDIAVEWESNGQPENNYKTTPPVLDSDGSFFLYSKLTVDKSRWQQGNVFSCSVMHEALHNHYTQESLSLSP
light: B1 light
notes: also called Ho Ab N325_03V
B5: GpH7-B3 variant L328_02A/GpL16-k0 (antibody, human IgG1, kappa)
heavy: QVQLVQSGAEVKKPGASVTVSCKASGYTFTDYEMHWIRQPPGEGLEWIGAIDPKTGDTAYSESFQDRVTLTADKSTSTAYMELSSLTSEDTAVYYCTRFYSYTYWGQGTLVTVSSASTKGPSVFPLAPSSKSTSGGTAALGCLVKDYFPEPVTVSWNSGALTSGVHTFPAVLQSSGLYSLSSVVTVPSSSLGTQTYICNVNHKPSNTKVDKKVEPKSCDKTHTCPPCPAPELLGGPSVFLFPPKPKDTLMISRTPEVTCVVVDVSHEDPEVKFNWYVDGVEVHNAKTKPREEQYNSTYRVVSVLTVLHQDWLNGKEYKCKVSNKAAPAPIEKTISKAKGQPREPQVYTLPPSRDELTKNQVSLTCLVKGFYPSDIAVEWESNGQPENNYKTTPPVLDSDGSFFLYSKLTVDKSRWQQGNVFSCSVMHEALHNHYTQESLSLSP
light: B1 light
notes: also called Ho Ab L328_02A
B6: GpH7-B3 variant P238_10E/GpL16-k0 (antibody, human IgG1, kappa)
heavy: not shown
light: B1 light
notes: also called Ho Ab P238_10E
B7: GpH7-B3 variant N325_06M/GpL16-k0 (antibody, human IgG1, kappa)
heavy: not shown
light: B1 light
notes: also called Ho Ab N325_06M
B8: GpH7-B3 variant S239_10E/GpL16-k0 (antibody, human IgG1, kappa)
heavy: not shown
light: B1 light
notes: also called Ho Ab S239_10E
B9: GpH7-B3 variant P238_16H/GpL16-k0 (antibody, human IgG1, kappa)
heavy: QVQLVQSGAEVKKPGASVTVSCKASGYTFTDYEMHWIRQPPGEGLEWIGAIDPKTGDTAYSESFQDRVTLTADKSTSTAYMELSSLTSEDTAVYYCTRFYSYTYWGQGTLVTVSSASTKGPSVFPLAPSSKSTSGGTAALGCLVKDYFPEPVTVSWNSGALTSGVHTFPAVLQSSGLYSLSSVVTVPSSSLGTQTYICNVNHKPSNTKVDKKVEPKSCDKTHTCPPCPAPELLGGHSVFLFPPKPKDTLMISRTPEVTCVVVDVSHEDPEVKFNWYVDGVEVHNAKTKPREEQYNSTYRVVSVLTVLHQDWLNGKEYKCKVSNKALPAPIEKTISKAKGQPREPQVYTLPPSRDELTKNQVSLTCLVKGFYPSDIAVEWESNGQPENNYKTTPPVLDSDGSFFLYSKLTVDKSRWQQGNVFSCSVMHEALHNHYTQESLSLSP
light: B1 light
notes: also called Ho Ab P238_16H
B10: GpH7-B3 variant S298_06M/GpL16-k0 (antibody, human IgG1, kappa)
heavy: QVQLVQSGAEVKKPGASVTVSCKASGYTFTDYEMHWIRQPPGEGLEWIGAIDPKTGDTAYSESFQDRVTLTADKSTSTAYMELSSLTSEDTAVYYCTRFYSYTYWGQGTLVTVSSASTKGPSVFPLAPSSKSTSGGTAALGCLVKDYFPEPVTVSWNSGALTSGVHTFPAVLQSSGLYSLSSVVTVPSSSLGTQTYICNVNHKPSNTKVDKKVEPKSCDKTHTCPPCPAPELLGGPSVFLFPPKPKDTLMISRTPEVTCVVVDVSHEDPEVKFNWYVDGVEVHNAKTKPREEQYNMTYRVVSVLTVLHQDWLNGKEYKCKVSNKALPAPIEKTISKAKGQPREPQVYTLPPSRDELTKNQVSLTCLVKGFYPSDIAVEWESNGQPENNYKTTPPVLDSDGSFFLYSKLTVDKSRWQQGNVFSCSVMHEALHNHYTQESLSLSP
light: B1 light
notes: also called Ho Ab S298_06M
B11: GpH7-B3 variant P271_10E/GpL16-k0 (antibody, human IgG1, kappa)
heavy: not shown
light: B1 light
notes: also called Ho Ab P271_10E
B12: GpH7-B3 variant S337_18N/GpL16-k0 (antibody, human IgG1, kappa)
heavy: not shown
light: B1 light
notes: also called Ho Ab S337_18N
B13: GpH7-B3 variant N325_13S/GpL16-k0 (antibody, human IgG1, kappa)
heavy: not shown
light: B1 light
notes: also called Ho Ab N325_13S
B14: GpH7-B3 variant S267_06M/GpL16-k0 (antibody, human IgG1, kappa)
heavy: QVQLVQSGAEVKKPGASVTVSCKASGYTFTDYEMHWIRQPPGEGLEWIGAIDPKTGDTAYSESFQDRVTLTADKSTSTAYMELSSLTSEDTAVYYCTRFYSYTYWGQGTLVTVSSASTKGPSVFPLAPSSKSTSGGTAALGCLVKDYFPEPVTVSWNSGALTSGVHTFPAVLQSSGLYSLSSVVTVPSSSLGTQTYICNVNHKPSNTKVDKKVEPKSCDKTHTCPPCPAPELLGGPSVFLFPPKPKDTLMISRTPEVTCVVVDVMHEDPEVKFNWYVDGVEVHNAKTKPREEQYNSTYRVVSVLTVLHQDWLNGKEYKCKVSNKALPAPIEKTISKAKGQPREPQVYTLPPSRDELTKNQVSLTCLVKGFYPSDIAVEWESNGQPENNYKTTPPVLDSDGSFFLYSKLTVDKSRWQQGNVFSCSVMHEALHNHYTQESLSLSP
light: B1 light
notes: also called Ho Ab S267_06M
B15: GpH7-B3 variant S337_15Y/GpL16-k0 (antibody, human IgG1, kappa)
heavy: not shown
light: B1 light
notes: also called Ho Ab S337_15Y
B16: GpH7-B3 variant P238_04F/GpL16-k0 (antibody, human IgG1, kappa)
heavy: not shown
light: B1 light
notes: also called Ho Ab P238_04F
B17: GpH7-B3 variant S239_06M/GpL16-k0 (antibody, human IgG1, kappa)
heavy: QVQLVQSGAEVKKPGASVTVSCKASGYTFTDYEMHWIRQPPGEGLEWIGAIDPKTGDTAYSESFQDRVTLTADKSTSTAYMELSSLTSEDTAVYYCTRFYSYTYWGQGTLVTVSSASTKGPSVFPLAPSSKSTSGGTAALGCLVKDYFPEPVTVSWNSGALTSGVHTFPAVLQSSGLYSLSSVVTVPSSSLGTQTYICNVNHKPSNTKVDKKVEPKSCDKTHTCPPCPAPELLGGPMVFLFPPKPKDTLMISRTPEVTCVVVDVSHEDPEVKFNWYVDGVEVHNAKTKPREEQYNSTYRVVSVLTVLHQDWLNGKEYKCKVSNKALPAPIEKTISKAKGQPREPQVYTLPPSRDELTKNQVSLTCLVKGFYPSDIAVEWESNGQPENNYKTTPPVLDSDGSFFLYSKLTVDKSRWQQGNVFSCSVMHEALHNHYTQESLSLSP
light: B1 light
notes: also called Ho Ab S239_06M
B18: GpH7-B3 variant S267_19Q/GpL16-k0 (antibody, human IgG1, kappa)
heavy: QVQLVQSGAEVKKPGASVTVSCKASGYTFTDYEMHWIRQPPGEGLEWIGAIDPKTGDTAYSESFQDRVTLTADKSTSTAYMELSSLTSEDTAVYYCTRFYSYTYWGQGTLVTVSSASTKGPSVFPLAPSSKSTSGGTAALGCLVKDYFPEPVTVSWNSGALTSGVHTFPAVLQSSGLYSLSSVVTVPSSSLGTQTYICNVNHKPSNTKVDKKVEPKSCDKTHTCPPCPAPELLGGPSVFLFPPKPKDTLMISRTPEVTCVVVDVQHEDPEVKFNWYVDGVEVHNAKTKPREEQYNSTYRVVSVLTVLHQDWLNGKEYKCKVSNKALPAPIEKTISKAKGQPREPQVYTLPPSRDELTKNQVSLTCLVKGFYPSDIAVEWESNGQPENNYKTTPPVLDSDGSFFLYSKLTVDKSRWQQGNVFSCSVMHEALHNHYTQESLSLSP
light: B1 light
notes: also called Ho Ab S267_19Q
B19: GpH7-B3 variant P238_20W/GpL16-k0 (antibody, human IgG1, kappa)
heavy: not shown
light: B1 light
notes: also called Ho Ab P238_20W
B20: GpH7-B3 variant N325_09D/GpL16-k0 (antibody, human IgG1, kappa)
heavy: not shown
light: B1 light
notes: also called Ho Ab N325_09D
B21: GpH7-B3 variant P271_09D/GpL16-k0 (antibody, human IgG1, kappa)
heavy: not shown
light: B1 light
notes: also called Ho Ab P271_09D
B22: GpH7-B3 variant S337_20W/GpL16-k0 (antibody, human IgG1, kappa)
heavy: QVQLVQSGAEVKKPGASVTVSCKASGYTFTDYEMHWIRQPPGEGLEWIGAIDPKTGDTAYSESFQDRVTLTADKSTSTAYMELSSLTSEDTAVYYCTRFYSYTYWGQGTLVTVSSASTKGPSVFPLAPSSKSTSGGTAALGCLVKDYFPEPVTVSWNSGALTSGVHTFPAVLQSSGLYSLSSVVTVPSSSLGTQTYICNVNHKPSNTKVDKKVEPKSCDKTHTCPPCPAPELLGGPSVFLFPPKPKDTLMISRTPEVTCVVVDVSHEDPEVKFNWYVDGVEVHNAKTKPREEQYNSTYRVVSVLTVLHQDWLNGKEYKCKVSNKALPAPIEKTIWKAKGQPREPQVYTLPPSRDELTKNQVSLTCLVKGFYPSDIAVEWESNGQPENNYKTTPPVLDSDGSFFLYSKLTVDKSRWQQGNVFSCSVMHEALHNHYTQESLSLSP
light: B1 light
notes: also called Ho Ab S337_20W
B23: GpH7-B3 variant L235_20W/GpL16-k0 (antibody, human IgG1, kappa)
heavy: not shown
light: B1 light
notes: also called Ho Ab L235_20W
B24: GpH7-B3 variant P238_06M/GpL16-k0 (antibody, human IgG1, kappa)
heavy: not shown
light: B1 light
notes: also called Ho Ab P238_06M
B25: GpH7-B3 variant P331_03V/GpL16-k0 (antibody, human IgG1, kappa)
heavy: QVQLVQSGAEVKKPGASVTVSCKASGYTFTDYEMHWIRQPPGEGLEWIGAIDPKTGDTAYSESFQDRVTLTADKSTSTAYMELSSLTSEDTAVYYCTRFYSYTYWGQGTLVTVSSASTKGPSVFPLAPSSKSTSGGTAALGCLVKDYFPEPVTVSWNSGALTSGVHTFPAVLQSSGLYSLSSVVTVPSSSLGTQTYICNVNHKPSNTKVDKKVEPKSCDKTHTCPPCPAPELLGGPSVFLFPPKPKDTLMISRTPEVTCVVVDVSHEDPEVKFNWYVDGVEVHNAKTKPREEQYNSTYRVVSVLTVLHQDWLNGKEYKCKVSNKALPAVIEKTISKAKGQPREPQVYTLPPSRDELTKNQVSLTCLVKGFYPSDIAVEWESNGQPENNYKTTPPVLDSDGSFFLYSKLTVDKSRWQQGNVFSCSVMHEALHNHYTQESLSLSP
light: B1 light
notes: also called Ho Ab P331_03V
B26: GpH7-B3 variant P238_19Q/GpL16-k0 (antibody, human IgG1, kappa)
heavy: not shown
light: B1 light
notes: also called Ho Ab P238_19Q

The target of this experiment is T1, FcγRIIb extracellular domain with …. The experiment is described as follows: SPR (Biacore), relative binding. Here is the method: Analysis of interaction between objective antibody and the FcγR was carried out using Biacore T100 (GE Healthcare). HBS-EP+ (GE Healthcare) was used as the running buffer, and the measurement temperature was set to 25° C. Chips produced by immobilizing the antigen peptide by the amine coupling method to a Series S Sencor Chip CM5 (GE Healthcare), or alternatively, chips produced by allowing preliminarily biotinylated antigen peptides to interact with and immobilize onto a Series S Sensor Chip SA (certified) (GE Healthcare) were used. Antibodies of interest were captured onto an antigen peptide-immobilized chip, and allowed to interact to each FcγR diluted with running buffer. To regenerate and repeatedly use the chip, the antibodies captured on the chip were washed off by reacting 10 mM glycine-HCl, pH 1.5.
B1: the Ho/Con_2b was 159 % of HoCon Ab GpH7-B3/GpL16-k0.

On to B2, for which the Ho/Con_2b is 96.6 % of HoCon Ab GpH7-B3/GpL16-k0.

On to B3, for which the Ho/Con_2b was 44 % of HoCon Ab GpH7-B3/GpL16-k0.

As to B4, the Ho/Con_2b is 31.8 % of HoCon Ab GpH7-B3/GpL16-k0.

Regarding B5, the Ho/Con_2b is 117 % of HoCon Ab GpH7-B3/GpL16-k0.

As to B6, the Ho/Con_2b was 97.9 % of HoCon Ab GpH7-B3/GpL16-k0.

Take B7: the Ho/Con_2b is 159 % of HoCon Ab GpH7-B3/GpL16-k0.

As for B8, the Ho/Con_2b is 175 % of HoCon Ab GpH7-B3/GpL16-k0.

Take B9: the Ho/Con_2b was 18.8 % of HoCon Ab GpH7-B3/GpL16-k0.

With B10, the Ho/Con_2b was 101 % of HoCon Ab GpH7-B3/GpL16-k0.

For the molecule B11, the Ho/Con_2b is 95 % of HoCon Ab GpH7-B3/GpL16-k0.

Regarding B12, the Ho/Con_2b is 98 % of HoCon Ab GpH7-B3/GpL16-k0.

Consider B13, for which the Ho/Con_2b is 159 % of HoCon Ab GpH7-B3/GpL16-k0.

Consider B14, for which the Ho/Con_2b is 187 % of HoCon Ab GpH7-B3/GpL16-k0.

As to B15, the Ho/Con_2b is 93.4 % of HoCon Ab GpH7-B3/GpL16-k0.

As to B16, the Ho/Con_2b is 209 % of HoCon Ab GpH7-B3/GpL16-k0.

With B17, the Ho/Con_2b is 84.3 % of HoCon Ab GpH7-B3/GpL16-k0.

For the molecule B18, the Ho/Con_2b was 185 % of HoCon Ab GpH7-B3/GpL16-k0.

For B19, the Ho/Con_2b is 12.6 % of HoCon Ab GpH7-B3/GpL16-k0.

Take B20: the Ho/Con_2b is 77 % of HoCon Ab GpH7-B3/GpL16-k0.

With B21, the Ho/Con_2b was 100 % of HoCon Ab GpH7-B3/GpL16-k0.

Consider B22, for which the Ho/Con_2b was 99.6 % of HoCon Ab GpH7-B3/GpL16-k0.

As to B23, the Ho/Con_2b was 116 % of HoCon Ab GpH7-B3/GpL16-k0.

With B24, the Ho/Con_2b was 97.1 % of HoCon Ab GpH7-B3/GpL16-k0.

Consider B25, for which the Ho/Con_2b was 86.6 % of HoCon Ab GpH7-B3/GpL16-k0.

As for B26, the Ho/Con_2b is 42.7 % of HoCon Ab GpH7-B3/GpL16-k0.

The values above are taken from patent publication US20150344570A1 (published 2015).
